Columns and labels:
HLA-A*69:01 = test: IEDB peptide-MHC binding, purified MHC/direct/fluorescence; filed as Kd, often an IC50 or EC50 that approximates it; ≥ and ≤ were set here for values at or beyond the usual limits of such assays; settings: source organism: Camelpox virus CMS
HLA-A*02:06 = test: as above
HLA-A*02:01 = test: as above
HLA-A*02:03 = test: as above; settings: source organism: Variola virus
HLA-B*39:01 = test: as above
HLA-B*15:01 = test: as above
HLA-B*40:01 [1] = test: as above; settings: source organism: Entamoeba histolytica HM-1:IMSS
HLA-A*02:16 = test: as above
HLA-B*27:03 = test: as above
HLA-A*02:11 = test: as above; settings: source organism: Entamoeba histolytica HM-1:IMSS
HLA-B*46:01 = test: as above
HLA-B*57:01 = test: as above
HLA-A*29:02 = test: as above
HLA-A*02:12 = test: as above; settings: source organism: Entamoeba histolytica HM-1:IMSS
HLA-A*23:01 = test: as above
HLA-A*02:19 = test: as above; settings: source organism: Entamoeba histolytica HM-1:IMSS
HLA-B*51:01 = test: as above
HLA-A*26:01 = test: as above; settings: source organism: Entamoeba histolytica HM-1:IMSS
HLA-B*15:17 = test: as above
HLA-A*24:03 = test: as above
HLA-A*03:01 = test: as above
HLA-A*11:01 = test: IEDB peptide-MHC binding, purified MHC/competitive/fluorescence; filed as Kd, often an IC50 or EC50 that approximates it; ≥ and ≤ were set here for values at or beyond the usual limits of such assays
HLA-B*44:02 = test: as above
HLA-B*27:05 = test: as above
HLA-A*30:01 = test: as above
HLA-B*58:01 = test: as above
HLA-B*08:01 = test: as above
HLA-A*30:02 = test: as above
HLA-B*07:02 = test: as above
HLA-B*53:01 = test: as above
HLA-A*01:01 = test: as above
HLA-B*14:02 = test: as above
HLA-A*66:01 = test: as above
HLA-A*68:02 = test: IEDB peptide-MHC binding, purified MHC/direct/fluorescence; filed as Kd, often an IC50 or EC50 that approximates it; ≥ and ≤ were set here for values at or beyond the usual limits of such assays; settings: source organism: Burkholderia mallei ATCC 23344
HLA-B*18:01 = test: as above; settings: source organism: Burkholderia mallei ATCC 23344
HLA-B*40:01 [2] = test: IEDB peptide-MHC binding, purified MHC/competitive/fluorescence; filed as Kd, often an IC50 or EC50 that approximates it; ≥ and ≤ were set here for values at or beyond the usual limits of such assays; settings: source organism: Burkholderia mallei SAVP1
[3] = source organism: Entamoeba histolytica HM-1:IMSS
[4] = source organism: Burkholderia mallei ATCC 23344
[5] = source organism: Burkholderia mallei SAVP1

Measured: Kd

DLYDMIHNV
0.076 µM: HLA-A*02:06; source organism: Variola virus
0.006 µM: HLA-A*02:03
0.0159 µM: HLA-A*02:01; source organism: Camelpox virus CMS
0.002 µM: HLA-A*69:01

IESNPLFPV
≥ 20 µM: HLA-B*39:01; [3] | HLA-B*15:01; [3] | HLA-A*02:16; [3] | HLA-B*27:03; [3] | HLA-A*02:11 | HLA-B*46:01; [3] | HLA-B*57:01; [3] | HLA-A*29:02; [3] | HLA-A*23:01; [3] | HLA-A*02:19 | HLA-B*51:01; [3] | HLA-A*26:01 | HLA-B*15:17; [3] | HLA-A*02:01; [3] | HLA-A*24:03; [3] | HLA-A*03:01; [3]
≥ 5 µM: HLA-A*11:01; [3] | HLA-B*44:02; [3] | HLA-B*27:05; [3] | HLA-A*30:01; [3] | HLA-B*58:01; [3] | HLA-B*08:01; [3] | HLA-A*30:02; [3] | HLA-B*07:02; [3] | HLA-B*53:01; [3] | HLA-A*01:01; [3] | HLA-B*14:02; [3] | HLA-A*66:01; [3]
0.922 µM: HLA-A*02:12
0.051 µM: HLA-B*40:01 [1]
0.034 µM: HLA-A*02:06; [3]

NVMDPMHGA
≥ 5 µM: HLA-B*40:01 [2] | HLA-A*11:01; [5] | HLA-B*44:02; [5] | HLA-B*27:05; [5] | HLA-A*30:01; [5] | HLA-B*58:01; [5] | HLA-B*08:01; [5] | HLA-A*30:02; [5] | HLA-B*07:02; [5] | HLA-B*53:01; [5] | HLA-A*01:01; [5] | HLA-B*14:02; [5] | HLA-A*66:01; [5]
≤ 0.001 µM: HLA-A*68:02
≥ 20 µM: HLA-B*39:01; [4] | HLA-B*15:01; [4] | HLA-A*02:16; [4] | HLA-B*27:03; [4] | HLA-B*46:01; [4] | HLA-B*57:01; [4] | HLA-A*29:02; [4] | HLA-A*23:01; [4] | HLA-B*51:01; [4] | HLA-B*18:01 | HLA-B*15:17; [4] | HLA-A*02:01; [4] | HLA-A*24:03; [4] | HLA-A*03:01; [4]

— the Immune Epitope Database (IEDB)
